Data set [1] has as its target T1, Sulfolobus solfataricus SsoPox, wild type (wt), SEQ ID NO: 3 (Saccharolobus solfataricus, UniProt Q97VT7).
In data set [2] the target is Sulfolobus solfataricus SsoPox variant W263F (of SEQ ID NO: 3) (Saccharolobus solfataricus, UniProt Q97VT7, W263F).
The target in data set [3] is T2, Sulfolobus solfataricus SsoPox variant W263M, SEQ ID NO: 9 (Saccharolobus solfataricus, UniProt Q97VT7, W263M).
T2 construct: made in house; host or cells: E. coli BL21(DE3)-pGro7/GroEL
It counts as biochemical.

In data set [4] the target is T3, Sulfolobus solfataricus SsoPox variant W263L, SEQ ID NO: 11 (Saccharolobus solfataricus, UniProt Q97VT7, W263L).
T3 construct: made in house; host or cells: E. coli BL21(DE3)-pGro7/GroEL
It counts as biochemical.

Data set [5] concerns the target T4, Sulfolobus solfataricus SsoPox variant αsA1 (C258L/I261F/W263A), SEQ ID NO: 21 (Saccharolobus solfataricus, UniProt Q97VT7, C258L/I261F/W263A).
T4 construct: made in house; host or cells: E. coli BL21(DE3)-pGro7/GroEL
T4 sequence (Q97VT7 1-314 C258L/I261F/W263A): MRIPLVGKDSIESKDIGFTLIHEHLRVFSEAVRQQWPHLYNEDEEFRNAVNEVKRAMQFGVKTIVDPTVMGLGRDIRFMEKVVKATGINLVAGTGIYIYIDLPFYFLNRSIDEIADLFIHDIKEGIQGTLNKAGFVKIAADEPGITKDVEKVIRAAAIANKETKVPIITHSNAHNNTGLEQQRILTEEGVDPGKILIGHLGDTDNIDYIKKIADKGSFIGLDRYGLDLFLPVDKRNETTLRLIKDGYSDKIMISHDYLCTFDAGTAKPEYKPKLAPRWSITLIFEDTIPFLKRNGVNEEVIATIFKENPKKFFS
It is filed as biochemical. As to conditions: for Catalytic activity: pH 8.

In data set [6] the target is T1, Sulfolobus solfataricus SsoPox, wild type (wt), SEQ ID NO: 3. Also noted: made in house; host or cells: E. coli BL21(DE3)-pGro7/GroEL. As to conditions: pH 8; cited from earlier work.
The target of data set [7] is T3, Sulfolobus solfataricus SsoPox variant W263L, SEQ ID NO: 11. It counts as biochemical. The source holds these as a separate data set.
Data set [8] concerns the target Sulfolobus solfataricus SsoPox variant W263T, SEQ ID NO: 19 (Saccharolobus solfataricus, UniProt Q97VT7, W263T).
Data set [9] deals with Sulfolobus solfataricus SsoPox variant W263I, SEQ ID NO: 15 (Saccharolobus solfataricus, UniProt Q97VT7, W263I).
The target in data set [10] is Sulfolobus solfataricus SsoPox variant W263V, SEQ ID NO: 17 (Saccharolobus solfataricus, UniProt Q97VT7, W263V).
Data set [11] has as its system CCCCCCCCCC(=O)CC(=O)N[C@H]1CCOC1=O. The experiment in a line: purified protein, by the assay type. As to conditions: pH 8.3; 25.0 °C.
A further data set has as its system CCCCCCC1CCCC(=O)O1. The experiment in a line: purified protein, by the assay type. As to conditions: pH 8.3; 25.0 °C.
For data set [12], the system named is CCCCCCCC(=O)CC(=O)N[C@H]1CCOC1=O. The experiment in a line: purified protein, by the assay type. As to conditions: pH 8.3; 25.0 °C.
Data set [13] is classed as physicochemical. As to conditions: pH 8.

Values joined by “and” are separate entries in the source; they are usually repeats but may differ in a detail not shown here. Equal values may be shown once.

These results are taken from US10072252B2 (priority 2013, dated 2018).

As to `CCCCCCCC(=O)CC(=O)N[C@H]1CCOC1=O` [3-oxo-C10 AHL], the Enhancement/wt in data set [1] is 1; in [2], 4.4(±1.0) × 10^−1; in data set [3] it was 0; in [4] it was 0. In addition, the kcat/KM in data set [1] is reported as 3.16(±0.40)×10^4 M^−1s^−1. Besides, in [1], the “times better substrate / higher catalytic efficiency” value is 10 times.

`CCOP(=S)(OCC)Oc1ccc([N+](=O)[O-])cc1` [Ethyl-Parathion, ethyl-parathion]: in data set [5], the “Catalytic activity (very low hydrolysis)” value is listed as “VLH”.

As to `CCOC(=O)CC(SP(=S)(OC)OC)C(=O)OCC` (stereo not shown) [Malathion, malathion], the Catalytic activity in data set [6] is 5.56 ± 1.26 M⁻¹ s⁻¹; in data set [5], 3.2 ± 0.7 M⁻¹ s⁻¹.

For the molecule `COP(=O)(OC)Oc1ccc([N+](=O)[O-])cc1` [Methyl-paraoxon, methyl-paraoxon], the “catalytic efficiency improvement induced by SDS” value in data set [7] is reported as 5.3 times. Further, the kcat/KM in data set [7] is 3.16(±0.10) × 10^4 M^−1s^−1 and 1.69(±0.04) × 10^5 M^−1s^−1. Besides, the results for the Catalytic activity in [6] and in data set [5] were 1.27(±0.7) · 10^3 M^−1s^−1 and 2.29(±1.09) · 10^4 M^−1s^−1, respectively.

Turning to `CCCCCCCC1CCC(=O)O1` (stereo not shown) [Undecanoic-γ-lactone, undecanoic-γ-lactone], the Enhancement/wt in [1] turned out to be 1; in data set [8], 147.9 ± 53.5; in data set [2], 5.3 ± 1.8; in data set [9], 2.3 ± 0.5; in data set [3], 5.4 ± 1.3; in data set [4] it was 4.4 ± 1.1. The Enhancement/wt in [10] worked out at 1.4 ± 0.4. Also, in data set [1], the kcat/KM is 2.36 (±0.38)×10^3 M^−1s^−1.

As for `CCCCCCC1CCCC(=O)O1` (stereo not shown) [Undecanoic-δ-lactone, undecanoic-δ-lactone], the Enhancement/wt in data set [1] is 1; in data set [8] it was 9.1 ± 3.5; in [2], 6.3 ± 2.7; in data set [9] it was greater than 73.8 ± 17.2; in data set [3] it was 5.6 ± 2.0; in data set [4], 3.3 ± 1.2. In addition, the Enhancement/wt in [10] stood at 10.1 ± 3.6. Also, the kcat/KM in data set [1] is 6.72(±2.54)×10^4 M^−1s^−1; in [9] (pH 8.3), >5.80(±0.74) × 10^6 M^−1s^−1. The “times better substrate / higher catalytic efficiency” value in data set [1] is on record as 10 times. The kcat result in data set [9] (pH 8.3) is recorded as “(5.80 ± 0.74) × 10^1 s^−1”.

As for “Sulfolobus solfataricus SsoPox variant W263A, SEQ ID NO: 13 (Saccharolobus solfataricus P2; W263A)”, the Km in data set [11] is 1640 ± 170 µM.

For the molecule “Sulfolobus solfataricus SsoPox variant W263F (of SEQ ID NO: 3) (Saccharolobus solfataricus P2; W263F)”, in the data set on CCCCCCC1CCCC(=O)O1, the Km amounted to 135.2 ± 52.8 µM, the kcat is 66.5 ± 3.2 s⁻¹ and the kcat/Km worked out at 492000 ± 193000 M⁻¹ s⁻¹. Besides, in data set [12], the Km is 288 ± 56 µM, the kcat worked out at 3.96 ± 0.18 s⁻¹ and the kcat/Km was determined as 13800 ± 2800 M⁻¹ s⁻¹. Besides, in data set [11], the Km was 146 ± 33 µM, the turnover number (kcat) was 0.66 ± 0.03 s⁻¹ and the kcat/Km came to 4520 ± 1040 M⁻¹ s⁻¹.

With “Sulfolobus solfataricus SsoPox variant W263I, SEQ ID NO: 15 (Saccharolobus solfataricus P2; W263I)”, in [12], the Km was determined as 1605 ± 443 µM, the turnover number (kcat) is 0.6 ± 0.09 s⁻¹ and the kcat/Km worked out at 374 ± 117 M⁻¹ s⁻¹. For the same molecule, in data set [11], the Km was 17.8 ± 4.87 µM and 17.8 ± 4.9 µM; the turnover number (kcat) is 2.89 s⁻¹ and 2.89 ± 0.08 s⁻¹.

On to “Sulfolobus solfataricus SsoPox variant W263T, SEQ ID NO: 19 (Saccharolobus solfataricus P2; W263T)”, for which, in data set [12], the Km was 1000 ± 343 µM, the kcat was 0.107 ± 0.016 s⁻¹ and the kcat/Km was 106 ± 40 M⁻¹ s⁻¹. Moreover, in data set [11], the Km worked out at 137 ± 19 µM, the catalytic constant (kcat) amounted to 10.4 ± 0.35 s⁻¹ and the kcat/Km came out at 75600 ± 10800 M⁻¹ s⁻¹.

As for “Sulfolobus solfataricus SsoPox variant W263V, SEQ ID NO: 17 (Saccharolobus solfataricus P2; W263V)”, in data set [12], the Km came out at 1346 ± 298 µM, the kcat turned out to be 0.19 ± 0.009 s⁻¹ and the kcat/Km stood at 141 ± 32 M⁻¹ s⁻¹. Further, in data set [11], the Michaelis constant (Km) stood at 24.7 ± 5.2 µM, the kcat was 4.82 ± 0.11 s⁻¹ and the kcat/Km stood at 195000 ± 44000 M⁻¹ s⁻¹.

As to “Sulfolobus solfataricus SsoPox, wild type (wt), SEQ ID NO: 3 (Saccharolobus solfataricus P2)”, in the data set on CCCCCCC1CCCC(=O)O1, the Michaelis constant (Km) was 94 ± 18 µM, the kcat was 7.38 ± 0.28 s⁻¹ and the kcat/Km turned out to be 78600 ± 15300 M⁻¹ s⁻¹. Besides, in data set [12], the Km was 143 ± 15 µM, the kcat came out at 4.52 ± 0.1 s⁻¹ and the kcat/Km amounted to 31600 ± 4000 M⁻¹ s⁻¹. In addition, the Km in data set [11] is 335 ± 10.4 µM and 456 ± 128 µM.

B1: SsoPox wt: wild-type hyperthermophilic PTE of Sulfolobus solfataricus, sequence SEQ ID NO: 3 (protein, listed as Sulfolobus solfataricus)
chain: MRIPLVGKDSIESKDIGFTLIHEHLRVFSEAVRQQWPHLYNEDEEFRNAVNEVKRAMQFGVKTIVDPTVMGLGRDIRFMEKVVKATGINLVAGTGIYIYIDLPFYFLNRSIDEIADLFIHDIKEGIQGTLNKAGFVKIAADEPGITKDVEKVIRAAAIANKETKVPIITHSNAHNNTGLEQQRILTEEGVDPGKILIGHLGDTDNIDYIKKIADKGSFIGLDRYGLDLFLPVDKRNETTLRLIKDGYSDKIMISHDYCCTIDWGTAKPEYKPKLAPRWSITLIFEDTIPFLKRNGVNEEVIATIFKENPKKFFS
Molecule B1 gave a melting temperature in [13] of 104 °C.

B2: SsoPox W263L: SEQ ID NO: 3 with substitution of tryptophan W in position 263 by leucine L (protein, listed as Sulfolobus solfataricus)
chain: MRIPLVGKDSIESKDIGFTLIHEHLRVFSEAVRQQWPHLYNEDEEFRNAVNEVKRAMQFGVKTIVDPTVMGLGRDIRFMEKVVKATGINLVAGTGIYIYIDLPFYFLNRSIDEIADLFIHDIKEGIQGTLNKAGFVKIAADEPGITKDVEKVIRAAAIANKETKVPIITHSNAHNNTGLEQQRILTEEGVDPGKILIGHLGDTDNIDYIKKIADKGSFIGLDRYGLDLFLPVDKRNETTLRLIKDGYSDKIMISHDYCCTIDLGTAKPEYKPKLAPRWSITLIFEDTIPFLKRNGVNEEVIATIFKENPKKFFS
In data set [13], B2 came in with a melting temperature of 92.0±2.1 °C.

B3: SsoPox W263M: SEQ ID NO: 3 with substitution of tryptophan W in position 263 by methionine M (protein, listed as Sulfolobus solfataricus)
chain: MRIPLVGKDSIESKDIGFTLIHEHLRVFSEAVRQQWPHLYNEDEEFRNAVNEVKRAMQFGVKTIVDPTVMGLGRDIRFMEKVVKATGINLVAGTGIYIYIDLPFYFLNRSIDEIADLFIHDIKEGIQGTLNKAGFVKIAADEPGITKDVEKVIRAAAIANKETKVPIITHSNAHNNTGLEQQRILTEEGVDPGKILIGHLGDTDNIDYIKKIADKGSFIGLDRYGLDLFLPVDKRNETTLRLIKDGYSDKIMISHDYCCTIDMGTAKPEYKPKLAPRWSITLIFEDTIPFLKRNGVNEEVIATIFKENPKKFFS
In turn, B3 registered a melting temperature in data set [13] of 85.3±0.9 °C.

B4: SsoPox W263F: SsoPox (SEQ ID NO: 3) with W263F variation (protein, listed as Sulfolobus solfataricus)
chain: MRIPLVGKDSIESKDIGFTLIHEHLRVFSEAVRQQWPHLYNEDEEFRNAVNEVKRAMQFGVKTIVDPTVMGLGRDIRFMEKVVKATGINLVAGTGIYIYIDLPFYFLNRSIDEIADLFIHDIKEGIQGTLNKAGFVKIAADEPGITKDVEKVIRAAAIANKETKVPIITHSNAHNNTGLEQQRILTEEGVDPGKILIGHLGDTDNIDYIKKIADKGSFIGLDRYGLDLFLPVDKRNETTLRLIKDGYSDKIMISHDYCCTIDFGTAKPEYKPKLAPRWSITLIFEDTIPFLKRNGVNEEVIATIFKENPKKFFS
B4 registered a melting temperature in [13] of 91.8±1.7 °C.
